The values that follow come from the supplement of paper PMC9112550, “Optimization of the antimicrobial peptide Bac7 by deep mutational scanning” (BMC Biology, 2022).
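Also: peptides expressed intracellularly from a pBAD plasmid library in pooled LB shake-flask culture, induced with 0.3% L-arabinose, DNA abundance read by NGS, three biological replicates, DESeq2 with apeglm shrinkage.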

This data set relates to Escherichia coli TOP10. Kind of data set: shrunken log2 fold change of peptide-encoding DNA abundance (4.5 h post-induction vs induction); higher = less antimicrobial activity (less host growth inhibition). The note with it: time post-induction: 4.5 h; library: site-saturation at positions 5, 18, 19, 20.
RRIRIRPPRLPRPRPRPSLTPRP: the “shrunken log2 fold change” value is -1.12. Regarding RRIRMRPPRLPRPRPRPVTNPRP, the “shrunken log2 fold change” value came out at 0.0903. As for RRIRLRPPRLPRPRPRPGMIPRP, the figure is -0.419. With RRIRGRPPRLPRPRPRPTYFPRP, the “shrunken log2 fold change” value turned out to be 0.0176. In the case of RRIRHRPPRLPRPRPRPTSNPRP, the “shrunken log2 fold change” value is -0.448.

For RRIRERPPRLPRPRPRPDYVPRP, the “shrunken log2 fold change” value was -0.00136.

For the sequence RRIRQRPPRLPRPRPRPEDMPRP, the “shrunken log2 fold change” value amounted to 0.0353. As for RRIRYRPPRLPRPRPRPLIPPRP, the “shrunken log2 fold change” value was -0.671. As to RRIRSRPPRLPRPRPRPYPVPRP, the “shrunken log2 fold change” value is -0.0856.

With RRIRTRPPRLPRPRPRPIYNPRP, the “shrunken log2 fold change” value was -0.254. The value for RRIRSRPPRLPRPRPRPEDAPRP was 0.821; that for RRIRRRPPRLPRPRPRPHRLPRP was 0.0507. As for RRIRIRPPRLPRPRPRPLHPPRP, the figure is -0.0764; as for RRIRKRPPRLPRPRPRPWLVPRP, 0.177; as for RRIRFRPPRLPRPRPRPLWCPRP, -0.0894. As for RRIRVRPPRLPRPRPRPHTNPRP, the figure is -0.471; as for RRIRTRPPRLPRPRPRPNDTPRP, -0.387. For RRIRDRPPRLPRPRPRPFSLPRP, the “shrunken log2 fold change” value is -0.176. As for RRIRRRPPRLPRPRPRPWWVPRP, the figure is 0.0496. The value for RRIRGRPPRLPRPRPRPIGEPRP was 0.187. The value for RRIRWRPPRLPRPRPRPQLDPRP was 0.0393; that for RRIRARPPRLPRPRPRPMDPPRP was 0.0606; that for RRIRGRPPRLPRPRPRPIDCPRP was -0.00142. RRIRLRPPRLPRPRPRPEVAPRP: the “shrunken log2 fold change” value was found to be 0.475. As for RRIRWRPPRLPRPRPRPPYGPRP, the figure is -0.0783. As for RRIRWRPPRLPRPRPRPSSFPRP, the figure is -0.00317. As for RRIRYRPPRLPRPRPRPGKHPRP, the figure is 0.0354. As to RRIRGRPPRLPRPRPRPASGPRP, the “shrunken log2 fold change” value amounted to 0.625. As for RRIRTRPPRLPRPRPRPPNVPRP, the figure is -0.201; as for RRIRIRPPRLPRPRPRPSYSPRP, -0.694; as for RRIRFRPPRLPRPRPRPLTHPRP, -0.0881. For the sequence RRIRVRPPRLPRPRPRPTVAPRP, the “shrunken log2 fold change” value came out at 0.37. For the sequence RRIRERPPRLPRPRPRPMCWPRP, the “shrunken log2 fold change” value was 0.451.

Take RRIRVRPPRLPRPRPRPGSNPRP: the “shrunken log2 fold change” value stood at 0.0377. RRIRVRPPRLPRPRPRPWSQPRP: the “shrunken log2 fold change” value is -0.219. As for RRIRLRPPRLPRPRPRPMTYPRP, the figure is -0.0978; as for RRIRVRPPRLPRPRPRPTRGPRP, 0.412; as for RRIRVRPPRLPRPRPRPKPYPRP, 0.0131.

Turning to RRIRPRPPRLPRPRPRPTEDPRP, the “shrunken log2 fold change” value is -0.18. The value for RRIRDRPPRLPRPRPRPMHMPRP was -0.0583. Regarding RRIRVRPPRLPRPRPRPEHGPRP, the “shrunken log2 fold change” value was -0.219. For the sequence RRIRQRPPRLPRPRPRPVPVPRP, the “shrunken log2 fold change” value was -0.228. As for RRIRLRPPRLPRPRPRPNPIPRP, the figure is -0.237; as for RRIRTRPPRLPRPRPRPHPEPRP, -0.0834.

For the sequence RRIRARPPRLPRPRPRPSIPPRP, the “shrunken log2 fold change” value was -0.349.

Take RRIRNRPPRLPRPRPRPVQDPRP: the “shrunken log2 fold change” value was -0.302. On to RRIRMRPPRLPRPRPRPACIPRP, for which the “shrunken log2 fold change” value came out at 0.112. As for RRIRCRPPRLPRPRPRPCKAPRP, the figure is -0.0437; as for RRIRRRPPRLPRPRPRPDKWPRP, 0.107. As for RRIRDRPPRLPRPRPRPQVLPRP, the figure is -0.178. The value for RRIRNRPPRLPRPRPRPMDKPRP was 0.00658; that for RRIRDRPPRLPRPRPRPEGEPRP was -0.0124; that for RRIRLRPPRLPRPRPRPNAAPRP was -0.0536. Regarding RRIRWRPPRLPRPRPRPMMIPRP, the “shrunken log2 fold change” value is -0.0137. As for RRIRHRPPRLPRPRPRPYNHPRP, the figure is -0.316; as for RRIRSRPPRLPRPRPRPLHKPRP, 0.104. As to RRIRVRPPRLPRPRPRPTWIPRP, the “shrunken log2 fold change” value came to 0.216. As for RRIRFRPPRLPRPRPRPYQSPRP, the figure is -0.00405; as for RRIRLRPPRLPRPRPRPTRPPRP, 0.828; as for RRIRSRPPRLPRPRPRPAPFPRP, 0.201. As for RRIRLRPPRLPRPRPRPDRKPRP, the figure is -0.0365.

With RRIRQRPPRLPRPRPRPQDCPRP, the “shrunken log2 fold change” value is -0.186.

Consider RRIRPRPPRLPRPRPRPEFIPRP, for which the “shrunken log2 fold change” value is -0.117. In the case of RRIRTRPPRLPRPRPRPAAFPRP, the “shrunken log2 fold change” value was -0.128. As for RRIRARPPRLPRPRPRPLVCPRP, the figure is 0.483; as for RRIRDRPPRLPRPRPRPNTSPRP, -0.284.

Take RRIRWRPPRLPRPRPRPWMPPRP: the “shrunken log2 fold change” value was -0.127. The value for RRIRFRPPRLPRPRPRPGSEPRP was -0.0634; that for RRIRLRPPRLPRPRPRPEDRPRP was -0.0181. The value for RRIRDRPPRLPRPRPRPANWPRP was 0.239; that for RRIRPRPPRLPRPRPRPRTSPRP was 0.59.

For RRIRARPPRLPRPRPRPSWDPRP, the “shrunken log2 fold change” value was found to be 0.244.

Consider RRIRLRPPRLPRPRPRPDGTPRP, for which the “shrunken log2 fold change” value stood at 0.245. As for RRIRDRPPRLPRPRPRPHIWPRP, the figure is -0.0717; as for RRIRYRPPRLPRPRPRPRIRPRP, 0.0291; as for RRIRKRPPRLPRPRPRPLLGPRP, 0.628. The value for RRIRIRPPRLPRPRPRPDFAPRP was 0.222. On to RRIRERPPRLPRPRPRPAEQPRP, for which the “shrunken log2 fold change” value was -0.163. As for RRIRRRPPRLPRPRPRPHQIPRP, the “shrunken log2 fold change” value worked out at 0.0553. As for RRIRMRPPRLPRPRPRPLKPPRP, the figure is 0.528; as for RRIRKRPPRLPRPRPRPHRNPRP, -0.167.

RRIRIRPPRLPRPRPRPPQNPRP: the “shrunken log2 fold change” value was -0.33. As for RRIRFRPPRLPRPRPRPWDEPRP, the figure is -0.264.

Consider RRIRCRPPRLPRPRPRPKRVPRP, for which the “shrunken log2 fold change” value was found to be 0.267. On to RRIRCRPPRLPRPRPRPWEFPRP, for which the “shrunken log2 fold change” value came to 0.0363. For the sequence RRIRLRPPRLPRPRPRPRRQPRP, the “shrunken log2 fold change” value stood at 0.234. As for RRIRIRPPRLPRPRPRPYGNPRP, the figure is -1.18; as for RRIRSRPPRLPRPRPRPPFSPRP, -0.217.

Consider RRIRQRPPRLPRPRPRPGMYPRP, for which the “shrunken log2 fold change” value was -0.35.

For the sequence RRIRLRPPRLPRPRPRPIVEPRP, the “shrunken log2 fold change” value stood at 0.0406. The value for RRIRPRPPRLPRPRPRPSCGPRP was 0.137.
